Measurements taken from US8691944B2, “Fibronectin polypeptides and methods of use” (The Research Foundation for the State University of New York, priority 2005, dated 2014).
Where no end group is shown, it is not given here.

Experiments:
[1] = molecular target: EGF (Homo sapiens, UniProt P01133); test: Binding of EGF to FN, FN domains and peptides
Description: (§1) VEGF, TGF-β1, PDGF-BB and FGF-2 bound IIICS with similar affinities (KD˜10^−7 M). […] The tested biological activities of GFs bound to a FN functional domain were retained or enhanced. […] In addition, our studies provide important information regarding the delivery of GFs and the sequestering of GFs, as appropriate, for therapeutic (e.g., surgical) or aesthetic indications, including wound healing treatments (where an aim is GF delivery) and cancer treatments (where an aim is GF sequestration). Where FN fragments are used to deliver GFs, they may be described as maintaining, activating, stabilizing or enhancing GF activity.
(§2) The survival of FN-null fibroblasts in the presence to PDGF-BB required substrate coated with intact FN or FNIII8-11+a PDGF-binding FN domain. […] To address this directly, we performed equilibrium binding assays with PDGF-BB to FN adsorbed to a surface or coupled to agarose beads. In addition, we also investigated the ability of other growth factors to bind intact FN.
(§3) To determine whether FN domains bind TGF-β1 and bFGF, equilibrium and kinetic binding was performed.

[2] = test system: mouse fibroblasts null for FN (FN−/−); test: Survival of FN-null fibroblasts on FN domains with PDGF-BB; assay type: cell-based; conditions: for FN-null cell survival / proliferation with PDGF-BB: FNIII8-11 + the named domain, or named protein; for FN-null cell survival with PDGF: plastic precoated with 0.15 μM GST-tagged FNIII8-11 ± the named domain, or named protein, PDGF-BB added 1 day after plating, 3 days
Description: To further investigate the response of cells to PDGF-BB bound to FN domains, we investigated the survival response of mouse fibroblasts null for FN (FN−/−). First we determined the response of FN-null cells to PDGF-BB in the absence of serum or other sources of exogenous FN. […] […] […] Importantly, differential response of FN-null cells, plated on different FN domains, to PDGF-BB was not secondary to differences in attachment as judged by cell counts two hours after plating. The FNIII8-11 central cell binding domain was present in all circumstances.

[3] = molecular target: T1, PDGF-BB (Homo sapiens, UniProt P01127); test: Equilibrium binding of PDGF-BB to FN, FN domains and peptides
T1 sequence (P01127 82-190 limits assumed): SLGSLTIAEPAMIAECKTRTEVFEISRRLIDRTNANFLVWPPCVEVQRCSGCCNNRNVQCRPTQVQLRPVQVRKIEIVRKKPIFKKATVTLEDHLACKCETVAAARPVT
Description: (§4) This led us to speculate that PDGF was binding to the engineered ECM through the H or HV domain since vascular endothelial GF (VEGF), a member of the PDGF superfamily, had been reported to bind H and remain active while bound.
as §2

[4] = molecular target: T2, TGF-β1 (Homo sapiens, UniProt P01137); test: Equilibrium binding of TGF-β1 to FN, FN domains and peptides; conditions: equilibrium binding
T2 sequence (P01137 279-390 limits assumed, species assumed): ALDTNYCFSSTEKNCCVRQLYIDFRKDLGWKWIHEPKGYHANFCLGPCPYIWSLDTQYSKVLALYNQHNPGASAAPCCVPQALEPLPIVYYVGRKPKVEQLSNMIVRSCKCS
Description: These peptides represent domains that follow the sequence pattern [QN]-X(1,2)-[ST]-X(0,1)-[IG]-[QS]-[KRQ]-[YTM]-[IG]-X(4,5)-X(0,1)-[KR]-X(1,2)-X(1,2)-[RT]-X(1,2)-[KQTS]-X(2)-T and that bind TGF-β1 with a certain affinity. […] We know of no other peptides in the human genome database that follow this pattern.
as §3

[5] = molecular target: TGF-α (Homo sapiens, UniProt P01135); test: Binding of TGF-α to FN, FN domains and peptides
Chain of TGF-α (P01135 40-89 limits assumed, species assumed): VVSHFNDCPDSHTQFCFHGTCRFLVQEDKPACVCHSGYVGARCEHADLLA
Description: as §2, §3

[6] = molecular target: bFGF (Homo sapiens, UniProt P09038); test: Equilibrium binding of bFGF (FGF-2) to FN, FN domains and peptides; conditions: equilibrium binding, intact FN; read-out: KD, bFGF (FGF-2) binding
Chain of bFGF (P09038 143-288): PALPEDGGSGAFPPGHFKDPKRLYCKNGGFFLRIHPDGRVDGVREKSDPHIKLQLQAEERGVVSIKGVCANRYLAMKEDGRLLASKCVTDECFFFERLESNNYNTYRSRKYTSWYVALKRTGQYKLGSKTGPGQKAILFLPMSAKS
Description: as §2, §3

[7] = molecular target: FGF-1 (Homo sapiens, UniProt P05230); test: Binding of FGF-1 to FN, FN domains and peptides
Chain of FGF-1 (P05230 whole entry, species assumed, the tested form may be a part): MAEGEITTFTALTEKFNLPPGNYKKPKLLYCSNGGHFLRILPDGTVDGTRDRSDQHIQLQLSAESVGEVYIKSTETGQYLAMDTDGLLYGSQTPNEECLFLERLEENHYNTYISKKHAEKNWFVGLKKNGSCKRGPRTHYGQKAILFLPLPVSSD
Description: as §2, §3

[8] = test system: CCL-64 mink lung cells; test: Inhibition of [3H]-thymidine incorporation by CCL-64 cells by FN-adhered TGF-β; assay type: cell-based
[9] = molecular target: T1, PDGF-BB; test: Surface plasmon resonance kinetic binding of PDGF-BB to FN domains
Description: as §1, with “activity. […]” for “activity.”

[10] = test system: VEGF; test: Plasmon resonance binding of VEGF to FN domains
Description: as §1

[11] = molecular target: FGF-2 (Homo sapiens, UniProt P09038); test: Plasmon resonance binding of FGF-2 to FN domains
Chain of FGF-2 (P09038 143-288): as the sequence (P09038 143-288) above
Description: as §1

[12] = molecular target: T2, TGF-β1; test: Plasmon surface resonance kinetic binding of TGF-β1 to FN domains; conditions: plasmon resonance
Description: as §1, §3

[13] = molecular target: PDGF-BB binding to FNIII1, FNIII12-14 and IIICS (Homo sapiens, UniProt P01127); test: Inhibition of PDGF-BB binding to FN domains by FNIII1 peptides
Chain of PDGF-BB binding to FNIII1, FNIII12-14 and IIICS (P01127 82-190 limits assumed): as the sequence (P01127 82-190 limits assumed) above
Description: Next, we determined if PDGF-BB-binding peptides from FNIII1 could inhibit PDGF-BB binding to FNIII1, FNIII12-14 and IIICS. For initial experiments we selected peptide 1 and peptide 2. For control, we used scrambled peptide 1.

[14] = molecular target: TGF-β1 binding to any recombinant FN domain (Homo sapiens, UniProt P01137); test: Inhibition of TGF-β1 binding to recombinant FN domains
Chain of TGF-β1 binding to any recombinant FN domain (P01137 279-390 limits assumed): as the sequence (P01137 279-390 limits assumed, species assumed) above

[15] = molecular target: bFGF binding to any recombinant FN domain (Homo sapiens, UniProt P09038); test: Inhibition of bFGF binding to recombinant FN domains
Chain of bFGF binding to any recombinant FN domain (P09038 134-288 limits assumed): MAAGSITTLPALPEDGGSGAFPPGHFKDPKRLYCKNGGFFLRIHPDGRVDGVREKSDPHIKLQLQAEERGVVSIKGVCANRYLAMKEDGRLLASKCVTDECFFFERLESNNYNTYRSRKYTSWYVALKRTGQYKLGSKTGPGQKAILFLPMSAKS

[16] = test system: human dermal fibroblasts; test: Type 1 collagen production by fibroblasts on FN domain coated plates preincubated with TGF-β1; assay type: cell-based; conditions: for type 1 collagen production in response to preincubated TGF-β1: plates coated with FNIII8-11 alone or with the named domain
Description: Therefore, we investigated whether it retained its activity while bound to recombinant FN functional domains. FNIII8-11 was adsorbed on plastic tissue culture dishes at a surface density to maximally affect the attachment and spreading of human dermal fibroblasts with or without the presence of adsorbed FNIII1-2. […] The maximum collagen secretion was approximately 25% of the amount observed when TGF-β1 remained in the medium at the concentrations indicated. […] The numbers of attached and spread cells were essentially identical when fibroblasts were cultures on plates coated with both FNIII8-11 and FNIII1-2 or FNIII8-11 alone. Similar data was obtained when fibroblasts were cultured on plates that had been coated with FNIII8-11 and FNIII12-V15 and then preincubated with TGF-β1.

[17] = test system: GFs; test: Growth factor binding to FN domains (GFs in general)
Description: as §4

[18] = test system: ERK; test: ERK response to PDGF-BB in presence and absence of FNIII1-2; assay type: cell-based; conditions: preliminary results
Description: In preliminary results investigating signal transduction pathway activation of growth factors in the presence of FN GF-binding peptides, the response of ERK to PDGF-BB in the presence and absence of FNIII1-2 was studied. Without FNIII1-2, the ERK response to PDGF-BB was maximum at 20 minutes and gradually diminished over four hrs. In the presence of FNIII 1-2, the ERK response to PDGF-BB, was about 25% greater and sustained for at least four hours.

[19] = test system: fibroblast chemotaxis; test: Fibroblast chemotaxis to GFs in the presence or absence of FN domains; assay type: cell-based; conditions: in solution
Description: To determine whether FN functional domains modulated TGF-β1, bFGF or PDGF-BB activity in solution, fibroblast chemotaxis was performed in response to the GFs in the presence or absence of FN domains.

Chain of EGF (P01133 971-1023 limits assumed, species assumed): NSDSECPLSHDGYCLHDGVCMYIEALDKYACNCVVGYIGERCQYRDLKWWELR

Substance	PDGF-BB binding (in words) [9]	VEGF binding (in words) [10]	FGF-2 binding (in words) [11]	TGF-β1 binding (in words) [12]	PDGF-BB binding (in words) [3]	other results
fibronectin [intact FN]						EGF binding (in words) [1]: did not; FN-null cell survival / proliferation with PDGF-BB [2]: robust proliferation; Kd [3]: 49 nM; Kd [4]: 53 nM; TGF-α binding (in words) [5]: did not; Kd [6]: 44 nM; FGF-1 binding (in words) [7]: did not; functional activity of TGF-β adhered to FN [8]: retained full functional activity
FNIII8-V15: FN type III repeats 8 to V15						FN-null cell survival / proliferation with PDGF-BB [2]: robust proliferation
FNIII1: recombinant first FN type III repeat	all four GFs bound	all four GFs bound	all four GFs bound	all four GFs bound		FN-null cell survival with PDGF [2]: increased survival
QLISIQQYGHQEVTRFDFTTTSTST [peptide 2]						inhibition of PDGF-BB binding to FNIII1, FNIII12-14 and IIICS [13]: neither peptide 2, nor the scramble varient of peptide 1 (FN634-658s), demonstrated inhibition
FN668-704: one half of the 76 aa FNIII1 peptide FN630-704					demonstrated PDGF-BB binding	
QPSHISKYILRWRPKNSVGRWKEAT [peptide 1]						inhibition of TGF-β1 binding to any recombinant FN domain [14]: completely inhibited; inhibition of bFGF binding to any recombinant FN domain [15]: completely inhibited; inhibition of PDGF-BB binding to FNIII1, FNIII12-14 and IIICS [13]: marked inhibition; Kd [3]: 250 nM
FNIII1-11: recombinant FN type III repeats 1-11	bound	did not	did not	bound		FN-null cell survival in the absence of PDGF-BB [2]: survived; FN-null cell survival / proliferation with PDGF-BB [2]: robust proliferation; FN-null cell survival with PDGF [2]: The best survival response
anastellin: 76-aa peptide within FNIII1; anti-angiogenic, promotes FN polymerization	bound	all but VEGF bound	bound	bound	demonstrated PDGF-BB binding	
QPSHISKY (Synthetically generated peptide) [FN634-641, 8 aa peptide from FNIII1]						TGF-β1 binding (in words) [4]: minimal binding activity
FN630-667: one half of the 76 aa FNIII1 peptide FN630-704					demonstrated PDGF-BB binding	
FNIII8-11: central cell-binding domain of FN containing RGD	None of the GFs detectably bound	None of the GFs detectably bound	None of the GFs detectably bound	None of the GFs detectably bound	did not	type 1 collagen production in response to preincubated TGF-β1 [16]: No increase in collagen synthesis; FN-null cell survival with PDGF [2]: failed to survive; support of FN-null fibroblast survival in the presence of PDGF-BB ([2]; substrate coating, FNIII8-11 alone or + named domain): did not support cell survival; binding of any GF (in words) [17]: In no case did any GF bind
FNIII1-2: recombinant FN type III repeats 1-2	all four GFs bound	all four GFs bound	all four GFs bound	all four GFs bound		Kd ([9]; kinetic binding): 9.1 nM; type 1 collagen production in response to preincubated TGF-β1 [16]: produced type 1 collagen in a dose response fashion; maximum collagen secretion, % of amount when TGF-β1 remained in the medium ([16]; plates coated with FNIII8-11 and FNIII1-2, preincubated with TGF-β1): approximately 25%; FN-null cell survival / proliferation with PDGF-BB [2]: enhance survival; ERK response to PDGF-BB, increase versus without FNIII1-2 [18]: about 25%; duration of sustained ERK response to PDGF-BB [18]: at least four; chemotactic activity when assayed alone [19]: no chemotactic activity; enhancement of chemotactic activity of TGF-β1, bFGF and PDGF-BB [19]: enhanced the chemotactic activity; Kd [3]: 37 nM
FN70: 70 kDa amino terminus of FN, includes fibrin and gelatin binding domains	None of the GFs detectably bound	None of the GFs detectably bound	None of the GFs detectably bound	None of the GFs detectably bound	did not	binding of any GF (in words) [17]: In no case did any GF bind
FNIII2: recombinant second FN type III repeat	all four GFs bound	all four GFs bound	all four GFs bound	all four GFs bound		
